From article PMC5567573, “Identification, heterologous expression and characterization of a dye-decolorizing peroxidase of Pleurotus sapidus” (AMB Express, 2017)

Key:
Assay in all cases: purified protein
purified protein [1] = substrate: COc1ccccc1O; details: H2O2 62.5 µM, pH 4.5, 50 mM sodium acetate, 30 °C, 4.5 nM enzyme
purified protein [2] = substrate: COc1cccc(OC)c1O; format: biochemical, Pleurotus sapidus; details: H2O2 62.5 µM, pH 4.5, 50 mM sodium acetate, 30 °C, 1.8 nM enzyme
purified protein [3] = substrate: CCn1c(=NN=c2sc3cc(S(=O)(=O)O)ccc3n2CC)sc2cc(S(=O)(=O)O)ccc21; format: biochemical, Pleurotus sapidus; details: H2O2 125 µM, pH 3.8, 100 mM sodium acetate, 30 °C, 0.27 nM enzyme

B1: rPsaDyP (recombinant DyP-type peroxidase of Pleurotus sapidus) (Pleurotus sapidus) (protein)
chain: ATNGTFLPLEEIQGDIMIGMRKPKEIFFFYSLQNPRKFKSVLAKLIYPHITTTAQMVCTTCAQPSAMLNVAWTSQGLRKLGVLDNLGDPYFAMGQLSDAAALGDTDPSTTWAPGLYANKTDGAFLIAAKDWEPIDTLLNQMKAWLGDAIVETHSNRGAVRPGDAAGKEHFGWLDGFIQPAVAGFATSTYPGQQLLLPGTLLTKEIGDPRRAARPAWTKWGSFMAYRQLQELVPEFDDYLMQEAALIQDSSRSVRERADLLGARMFGRWKSGTPLDLAPEKDDPSIGPNLMLNNNFDFNHPAPFNINTNQSYCPFSAHIRKIRPRADQGNQNLKNQMIRASIPYGEELSDDEINNKKTGTERGVAFVTYQSDLGSGFHFQQAEWANNVNIPTGKSDPTPGFDPIVGQNSGKPLVVSGIDYTDLNHDLTFMSFVVSKGGDYFFSPSMSAILHKIAA
- Km (purified protein [1]): 713 µM
- Vmax (purified protein [1]): 21 µM/min
- kcat (purified protein [1]): 74 s⁻¹
- kcat/Km (purified protein [1]): 100000 M⁻¹ s⁻¹
- Km (purified protein [2]): 1227 µM
- Vmax (purified protein [2]): 6.6 µM/min
- kcat (purified protein [2]): 60 s⁻¹
- kcat/Km (purified protein [2]): 49000 M⁻¹ s⁻¹
- Km (purified protein [3]): 99 µM
- Vmax (purified protein [3]): 6 µM/min
- kcat (purified protein [3]): 375 s⁻¹
- kcat/Km (purified protein [3]): 3.8e+06 M⁻¹ s⁻¹
